Laboratory results from patent publication US20100233154A1, “TARGETED BINDING AGENTS DIRECTED TO HEPARANASE AND USES THEREOF 463” (MedImmune Limited, priority 2008, published 2010).

B1: 7B9.1: human anti-heparanase monoclonal antibody, G4λ; VH SEQ ID NO 22, VL SEQ ID NO 24 (antibody, listed as Homo Sapiens, V domains shown)
VH: QVQLVESGGGVVQPGRSLRLSCAASGFTFSSYGMHWVRQAPGKGLEWVAVIWYDGSNKYYADSVKGRFTISRDNSKNTLYLQMNSLRAEDTAVYYCAREGAPYSSSDAFDIWGQGTMVTVSS
VL: QSVLTQPPSVSGAPGQRVTISCTGSSSNIGANYDVHWYQQLPGTAPKLLIYGDNNRPSGVPDRFSGSKSGTSASLAITGLQAEDEADYYCQSYDSSLSGSVFGGGTKLTVL
B2: 16G1.1: human anti-heparanase monoclonal antibody, G4κ; VH SEQ ID NO 14, VL SEQ ID NO 16 (antibody, listed as Homo Sapiens, V domains shown)
VH: QVQLVESGGGVVQPGRSLRLSCAASGFTFSSYGMHWVRQAPGKGLEWVAVIWYDGSNKYYADSVKGRFTISRDNSKNTLNLQMNSLRAEDTAVYYCGRDPGTYHYYYHGMDVWGQGTTVTVSS
VL: YIVMTQSPLSLPVTPGEPASISCRSSQSLLHSNGYNFLDWYLQKPGQSPQLLIYLGSNRASGVPDRFSGSGSGTDFTLKINRVEAEDVGVYYCMQALQTPITFGQGTRLEIK
B3: 15A1.2: fully human anti-heparanase monoclonal antibody, G2κ; VH SEQ ID NO 6, VL SEQ ID NO 8; ATCC PTA-9491 (antibody, listed as Homo Sapiens, V domains shown)
VH: QVQLVQSGAEVKKPGASVKVSCKVSGYTLTELSMHWVRQAPGKGLEWMGGFDPEDGETIFAQKFQGRVTMTEDTSTDTAYMELSSLRSEDTAVYYCATGLRFLEWFLWGWDVWGQGTTVTVSS
VL: DIQMTQSPSSVSASVGDRVTITCRASQGISNWLAWYQQTPGKAPQLLIYGASSLQSGVPSRFSGSGSGTDFTLTISSLQPEDFATYYCQQADSFPPTFGQGTKVEIK
notes: fully human anti-heparanase monoclonal antibody, G2κ; ATCC PTA-9491
B4: 14H12.3: human anti-heparanase monoclonal antibody, G2λ; VH SEQ ID NO 26, VL SEQ ID NO 28 (antibody, listed as Homo Sapiens, V domains shown)
VH: QVQLVESGGGVVQPGRSLRLSCAASGFTFSSYGMHWVRQAPGKGLEWVAVIWYDGSNKDYADSVKGRFTISRDNSKNTLYLQMNSLRAEDTAVYYCAREGSTSWTDYYGMDVWGQGTTVTVSS
VL: SYELTQPPSVSVSPGQTARITCSGDALPKRYAYWYQQKSGQALVLVIYEDSKRPSGIPERFSGSSSGTMATLTISGAQVEDEADYYCYSIDSSGNHGVFGGGTKLTVL

What was measured:
cynomolgus heparanase = experiment: Cross species capture ELISA, cynomolgus heparanase; assay type: binding; conditions: min 0.06, max 1.5 OD units
Protocol: (§1) Initially, cross species binding to human, murine and cynomolgus heparanase was determined in an ELISA assay in which heparanase was captured onto plates using a rabbit anti-heparanase antibody (Raybiotech, Cat. IP-14-155). Exhaustive supernatants were added to the plates at a final dilution of 1:5 and bound antibody detected with a rabbit anti-human IgG Fc.

murine heparanase = molecular target: T1, murine heparanase (Mus musculus, UniProt Q6YGZ1); experiment: Cross species capture ELISA, murine heparanase; assay type: binding; conditions: min 0.06, max 0.9 OD units
T1 construct: made in house; host or cells: Hek293 cells (conditioned medium), inferred for the ELISA
T1 sequence (Q6YGZ1 28-535): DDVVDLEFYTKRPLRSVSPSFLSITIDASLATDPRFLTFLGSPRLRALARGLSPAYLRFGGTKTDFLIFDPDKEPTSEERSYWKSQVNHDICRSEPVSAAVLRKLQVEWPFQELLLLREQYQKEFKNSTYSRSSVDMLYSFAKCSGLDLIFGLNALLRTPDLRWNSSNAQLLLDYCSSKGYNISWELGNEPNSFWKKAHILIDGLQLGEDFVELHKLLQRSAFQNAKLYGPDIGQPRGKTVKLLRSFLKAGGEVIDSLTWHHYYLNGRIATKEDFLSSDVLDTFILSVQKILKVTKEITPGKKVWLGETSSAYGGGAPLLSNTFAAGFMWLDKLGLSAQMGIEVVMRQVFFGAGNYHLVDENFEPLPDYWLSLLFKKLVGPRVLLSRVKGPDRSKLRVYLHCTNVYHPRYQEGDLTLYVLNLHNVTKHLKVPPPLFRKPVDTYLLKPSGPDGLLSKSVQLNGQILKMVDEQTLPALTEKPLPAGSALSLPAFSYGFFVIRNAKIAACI
Protocol: as §1

[1] = molecular target: T2, recombinant human heparanase (Homo sapiens, UniProt Q9Y251); experiment: ELISA binding to directly coated recombinant human heparanase
T2 construct: Heparanase 8 and 50 kDa sub-units were cloned into pacGP67 as Sma 1-EcoR1 fragments; made in house; host or cells: Hi5 insect cells, baculovirus (pFastBac Dual)
T2 sequence (Q9Y251 158-543 limits assumed): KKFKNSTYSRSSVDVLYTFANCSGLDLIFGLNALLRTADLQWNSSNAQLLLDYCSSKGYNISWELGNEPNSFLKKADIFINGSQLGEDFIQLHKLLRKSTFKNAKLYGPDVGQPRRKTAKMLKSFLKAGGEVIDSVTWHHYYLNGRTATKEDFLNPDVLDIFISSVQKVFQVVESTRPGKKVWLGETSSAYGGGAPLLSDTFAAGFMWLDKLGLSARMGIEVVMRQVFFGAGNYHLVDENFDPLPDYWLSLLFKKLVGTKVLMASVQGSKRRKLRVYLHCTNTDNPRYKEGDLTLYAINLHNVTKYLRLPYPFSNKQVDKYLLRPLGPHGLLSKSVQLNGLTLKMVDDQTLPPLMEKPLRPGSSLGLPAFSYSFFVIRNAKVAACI
T2 sequence (Q9Y251 36-109 limits assumed): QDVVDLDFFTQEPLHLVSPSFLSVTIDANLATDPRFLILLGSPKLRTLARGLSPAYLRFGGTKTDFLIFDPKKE
Protocol: (§2) Titres of antibodies from Campaigns 1 and 2 were determined in an ELISA. Costar 3368 medium binding plates were coated directly with recombinant human heparanase or plates were coated with Rabbit anti-heparanase antibody (Raybiotech, Cat. IP-14-155) to capture recombinant heparanase. Directly coated heparanase was detected in three separate plates by mouse (InSight Cat. INS-26-1-0000), goat (Santa Cruz, Cat. sc26136) or rabbit (Raybiotech, Cat. IP-14-155) anti-heparanase antibodies, and quantified using appropriate secondary antibodies. Antibody captured heparanase was detected using mouse anti-heparanase (Insight Cat. INS-26-1-0000). At the end of the immunisation program, fusions were performed using mouse myeloma cells and lymphocytes isolated from the spleens and lymph nodes of the immunised mice by means of electroporation, as described in Example 2.
(§3) Initial screening to detect antibodies binding to human heparanase in both direct coating and antibody capture ELISAs as described above identified 800 hybridomas for further testing; 535 IgG2 from Campaign 1 and 2 and 265 IgG4 from Campaign 2. Enzyme inhibition assays and cross species binding to cynomolgus and murine heparanase, in an antibody capture ELISA, identifed 12 antibodies that were taken forward for sub-cloning to provide purified antibodies for further analysis. Subsequently, confirmation of activity against human heparanase (FIGS. 3 and 4) and inhibition of recombinant cynomolgus and murine heparanase activity in the HS-cryptate degradation assay (FIG. 5a-c), together with sequence analysis, identified 8 antibodies that are described in the table below.

human heparanase = molecular target: T3, human heparanase (Homo sapiens, UniProt Q9Y251); experiment: Cross species capture ELISA, human heparanase; assay type: binding
T3 sequence (Q9Y251 36-543): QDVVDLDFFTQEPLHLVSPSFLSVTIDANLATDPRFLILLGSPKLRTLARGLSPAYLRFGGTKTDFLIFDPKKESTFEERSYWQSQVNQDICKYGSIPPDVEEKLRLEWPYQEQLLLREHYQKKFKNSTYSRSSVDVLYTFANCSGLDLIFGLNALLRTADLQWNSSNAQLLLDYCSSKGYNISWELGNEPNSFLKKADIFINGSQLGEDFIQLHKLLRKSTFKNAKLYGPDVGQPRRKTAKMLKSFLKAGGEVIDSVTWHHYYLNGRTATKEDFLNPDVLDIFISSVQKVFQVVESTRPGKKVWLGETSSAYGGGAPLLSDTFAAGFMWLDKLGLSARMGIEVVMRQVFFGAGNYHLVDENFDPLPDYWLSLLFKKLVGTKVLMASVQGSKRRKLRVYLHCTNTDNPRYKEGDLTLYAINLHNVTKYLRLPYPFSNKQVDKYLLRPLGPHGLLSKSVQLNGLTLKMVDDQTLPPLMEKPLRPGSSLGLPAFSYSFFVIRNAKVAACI
Protocol: as §1

[2] = molecular target: T4, recombinant heparanase captured with rabbit anti-heparanase antibody (Homo sapiens, UniProt Q9Y251); experiment: ELISA binding to antibody-captured heparanase; conditions: antibody capture
T4 construct: Heparanase 8 and 50 kDa sub-units were cloned into pacGP67 as Sma 1-EcoR1 fragments; made in house; host or cells: Hi5 insect cells, baculovirus (pFastBac Dual)
T4 sequence (Q9Y251 158-543 limits assumed): T2 sequence (Q9Y251 158-543 limits assumed)
T4 sequence (Q9Y251 36-109 limits assumed): T2 sequence (Q9Y251 36-109 limits assumed)
Protocol: as §2, §3

MCF7-Hpa1#19 xenograft = experiment: Subcutaneous xenograft tumour growth, MCF7-Hpa1#19; assay type: in vivo, SCID mice; conditions: once weekly i.p.; 10E9.1 at 7.5 or 15 mg per kg
Protocol: (§4) MCF7-Hpa1#19 and HCT116 tumour cells were harvested from sub-confluent cultures. A total of 5×10^6 (MCF7-Hpa1#19) or 10^7 (HCT116) tumour cells were inoculated subcutaneously into the flank of male SCID mice. HCT116 tumour cells were implanted in PBS; […] cells were implanted in PBS containing 50% matrigel.
(§5) When tumours had attained ˜200 mm^3, tumour bearing mice were randomised into treatment groups and dosed with the following; PBS; an isotype matched control IgG2 antibody, 15 mg per kg; anti-heparanase antibody 10E9.1, 7.5 or 15 mg per kg. All treatments were administered once weekly i.p. Tumour growth was measured twice per week using calipers and tumour volumes calculated according to an ellipsoid volume is formula (3.142/6×length×width×width) from measures of the largest tumour diameter and two opposing widths (FIG. 11).

MDA MB231-Hpa1#4 cells = experiment: Heparanase expression in cells cultured with antibody (Western blot); assay type: cell-based, human; conditions: 25 μg per ml antibody, 72 hrs, compared to untreated or IgG2 control
Protocol: MDA MB231-Hpa1#4 cells were cultured in the presence of 25 μg per ml anti-human heparanase antibody or control IgG2 antibody (Sigma Cat. No. 1504-1MG) for 72 hrs. Following the removal of culture medium, protein extracts were prepared from the cells in 100 μl RIPA buffer and separated on […] gels and transferred to nitrocellulose as described above. Western blots were probed with an anti-heparanase antibody that detected only pro-heparanase (SantaCruz Cat. No. SC25825).

Recombinant Hpa1 = molecular target: T5, Recombinant Hpa1 (Homo sapiens, UniProt Q9Y251); experiment: Medium resolution Biacore affinity; assay type: binding
T5 construct: Heparanase 8 and 50 kDa sub-units were cloned into pacGP67 as Sma 1-EcoR1 fragments; made in house; host or cells: Hi5 insect cells, baculovirus (pFastBac Dual)
T5 sequence (Q9Y251 158-543 limits assumed): T2 sequence (Q9Y251 158-543 limits assumed)
T5 sequence (Q9Y251 36-109 limits assumed): T2 sequence (Q9Y251 36-109 limits assumed)
Protocol: For medium resolution Biacore™ tests, cloned and purified antibodies were used. Each of three purified antibodies (10E9.1, 15A1.2, and 15A11.1) were captured onto a high-density goat anti-human antibody surface over a CM4 Biacore™ chip. Recombinant Hpa1 was diluted to the desired concentration (1 nM and 10 nM) in 10 mM HEPES, 150 mM NaCl, 0.005% tween-20, 0.1 mg per ml BSA pH7.4 (25° C.) immediately prior to injection. Data were fit globally to a 1:1 interaction model with a term for mass transport included. The resulting KD values are summarised below in Table 4.

HCT116 xenograft = experiment: Subcutaneous xenograft tumour growth, HCT116; assay type: in vivo, SCID mice; conditions: once weekly i.p.; 10E9.1 at 15 mg per kg
Protocol: as §4, §5

[3] = purified antibody captured on CM4 chip, Hpa1 1 nM and 10 nM, 25° C.

Row | Molecule | Binding to heparanase Cyno (cynomolgus heparanase) | Binding to heparanase Mouse (murine heparanase) | Binding to direct coated heparanase [1] | Binding to heparanase Human (human heparanase) | Binding to captured heparanase [2] | Tumour growth inhibition (MCF7-Hpa1#19 xenograft) | Inhibition of heparanase expression (MDA MB231-Hpa1#4 cells) | Kd (Recombinant Hpa1; 1:1 interaction model with mass transport term) | ka (Recombinant Hpa1; [3]) | kd (Recombinant Hpa1; [3]) | Tumour growth inhibition (HCT116 xenograft)
1 | B1 | 1.06 OD units | 0.58 OD units | 3.78 OD units | 0.68 OD units | 6.0 OD units | – | – | – | – | – | –
2 | B2 | 1.64 OD units | 0.61 OD units | 3.63 OD units | 1.84 OD units | 3.82 OD units | – | – | – | – | – | –
3 | B3 | 0.11 OD units | 0.14 OD units | 0.08 OD units | 0.19 OD units | 0.92 OD units | not inhibited | significant inhibition of heparanase expression | 0.0859 nM | 1.88e+06 M⁻¹ s⁻¹ | 0.000105 s⁻¹ | not inhibited
4 | B4 | 0.95 OD units | 0.14 OD units | 3.69 OD units | 0.61 OD units | 3.27 OD units | – | – | – | – | – | –
